Measured values from patent publication US20130156786A1 (Sanofi, published 2013).

What was measured:
[1] = biological target: T1, rat α2β1 integrin (whole blood) (rat, UniProt A0A0G2K470 27-1178; P49134 21-798); experiment: FACS on whole blood, PE-coupled goat anti-mouse IgG
T1 construct: whole, on cells

[2] = biological target: dog α2β1 integrin (whole blood) (dog); experiment: as above
[3] = biological target: rabbit α2β1 integrin (whole blood) (rabbit, UniProt G1T180 31-1185; A0A5F9C3C4 21-798); experiment: as above
[4] = biological target: T2, mouse α2β1 integrin (whole blood) (mouse, UniProt Q62469 27-1178; P09055 21-798); experiment: as above
T2 construct: whole, on cells

[5] = biological target: T3, α2 integrin on HUVEC cells; experiment: MesoScale electrochemiluminescence binding to HUVEC cells coated on plates, serial dilutions of the mAb
T3 construct: The sheet names no target; also called HUVEC cells (promocell C12200, lot 6062203)
T3 sequence (alpha, as listed by the source limits assumed): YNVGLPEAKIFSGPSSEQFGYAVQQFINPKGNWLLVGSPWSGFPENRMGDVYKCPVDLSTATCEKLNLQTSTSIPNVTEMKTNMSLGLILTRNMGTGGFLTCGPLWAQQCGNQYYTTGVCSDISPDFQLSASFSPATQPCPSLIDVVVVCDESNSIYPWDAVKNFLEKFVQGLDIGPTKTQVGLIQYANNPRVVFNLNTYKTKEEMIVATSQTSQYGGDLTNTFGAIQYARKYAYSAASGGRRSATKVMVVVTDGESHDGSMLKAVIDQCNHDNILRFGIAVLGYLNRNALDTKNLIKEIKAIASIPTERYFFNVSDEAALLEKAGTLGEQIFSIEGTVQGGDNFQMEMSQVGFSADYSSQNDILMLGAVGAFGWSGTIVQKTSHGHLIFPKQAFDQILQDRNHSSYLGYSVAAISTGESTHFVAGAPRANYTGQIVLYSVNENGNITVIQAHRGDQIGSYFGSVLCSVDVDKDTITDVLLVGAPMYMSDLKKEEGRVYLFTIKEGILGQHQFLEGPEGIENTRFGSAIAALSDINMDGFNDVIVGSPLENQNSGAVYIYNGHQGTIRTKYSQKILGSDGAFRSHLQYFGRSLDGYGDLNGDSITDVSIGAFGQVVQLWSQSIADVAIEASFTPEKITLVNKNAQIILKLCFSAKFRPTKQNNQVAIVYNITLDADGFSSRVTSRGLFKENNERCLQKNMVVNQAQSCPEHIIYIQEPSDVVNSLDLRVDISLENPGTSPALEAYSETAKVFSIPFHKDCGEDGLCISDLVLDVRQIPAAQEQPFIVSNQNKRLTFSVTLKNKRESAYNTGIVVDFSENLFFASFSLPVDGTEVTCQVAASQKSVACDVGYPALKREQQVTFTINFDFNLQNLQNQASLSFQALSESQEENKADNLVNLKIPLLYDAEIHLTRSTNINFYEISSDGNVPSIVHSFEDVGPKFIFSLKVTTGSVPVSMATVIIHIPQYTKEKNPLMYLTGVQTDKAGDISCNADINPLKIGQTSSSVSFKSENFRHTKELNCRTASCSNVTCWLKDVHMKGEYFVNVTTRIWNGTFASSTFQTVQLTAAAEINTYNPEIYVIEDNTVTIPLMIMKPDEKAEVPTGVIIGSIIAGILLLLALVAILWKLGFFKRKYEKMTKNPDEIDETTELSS
Description: (§1) To further assess the binding properties of the anti-α2 integrin mAb, a cell based assay with HUVEC cells (promocell C12200, lot 6062203) was performed. Cells were coated onto high binding plates (Meso Scale Discovery (MSD), L15XB-3) in PBS (10.000 cells/well) and incubated for 2 hrs at room temperature. Then the plates were emptied, washed twice with PBS and blocked with blocking solution (MSD, R93BA-4) for 90 min. After emptying and washing the plates again as described above, serial dilutions of anti α2-mAb were added and incubated with the cells for 1 h at room temperature. Following another washing step as above Read buffer T without surfactant (Meso scale Discovery, R92TD-2) was added. Electrochemilumenescence was read in a suitable device (Meso scale Discovery, Sector imager). Scatchard plot analysis was used to determine KD of the tested mAbs (see FIG. 1).

[6] = biological target: T3, α2 integrin on HUVEC cells; experiment: Scatchard plot (B/F against B (RLU)) of MesoScale electrochemiluminescence binding to HUVEC cells coated on plates; drawn table: SD 0.01291, CV(%) 6.0, 95%CI [0.1899; 0.2425]
Description: as §1

dog α2β1 integrin (whole blood) (dog), sequence (alpha, as listed by the source limits assumed, chain 1 of 2): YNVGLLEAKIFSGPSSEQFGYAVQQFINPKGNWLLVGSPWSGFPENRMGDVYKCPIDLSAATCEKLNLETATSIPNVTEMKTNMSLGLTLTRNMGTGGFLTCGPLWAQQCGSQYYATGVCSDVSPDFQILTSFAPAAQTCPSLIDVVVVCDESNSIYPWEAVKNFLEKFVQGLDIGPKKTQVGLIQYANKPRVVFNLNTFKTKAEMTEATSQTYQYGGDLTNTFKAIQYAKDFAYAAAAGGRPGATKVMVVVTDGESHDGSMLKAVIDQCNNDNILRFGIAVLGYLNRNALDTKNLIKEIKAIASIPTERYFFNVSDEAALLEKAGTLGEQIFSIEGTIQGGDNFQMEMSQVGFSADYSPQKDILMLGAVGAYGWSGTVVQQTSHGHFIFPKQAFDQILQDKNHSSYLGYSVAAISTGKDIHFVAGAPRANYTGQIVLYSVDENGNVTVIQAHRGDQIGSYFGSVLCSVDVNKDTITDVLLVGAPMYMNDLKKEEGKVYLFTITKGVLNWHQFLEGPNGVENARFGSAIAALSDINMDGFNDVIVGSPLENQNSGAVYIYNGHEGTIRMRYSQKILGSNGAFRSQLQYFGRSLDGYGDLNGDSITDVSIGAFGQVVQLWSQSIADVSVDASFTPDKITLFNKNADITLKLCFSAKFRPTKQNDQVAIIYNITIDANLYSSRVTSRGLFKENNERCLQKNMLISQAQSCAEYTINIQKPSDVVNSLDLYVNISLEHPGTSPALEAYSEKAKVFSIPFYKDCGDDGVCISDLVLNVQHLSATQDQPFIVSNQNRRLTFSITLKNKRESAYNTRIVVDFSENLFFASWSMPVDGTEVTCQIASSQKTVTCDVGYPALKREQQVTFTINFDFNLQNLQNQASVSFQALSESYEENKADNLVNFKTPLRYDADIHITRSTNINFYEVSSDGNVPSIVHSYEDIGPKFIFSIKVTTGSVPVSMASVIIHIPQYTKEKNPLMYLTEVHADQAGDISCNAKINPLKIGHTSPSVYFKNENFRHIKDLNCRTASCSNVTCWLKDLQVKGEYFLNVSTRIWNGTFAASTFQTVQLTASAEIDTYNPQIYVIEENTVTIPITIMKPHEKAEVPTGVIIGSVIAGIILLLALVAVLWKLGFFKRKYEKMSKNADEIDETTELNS
dog α2β1 integrin (whole blood) (dog), sequence (beta, as listed by the source limits assumed, chain 2 of 2): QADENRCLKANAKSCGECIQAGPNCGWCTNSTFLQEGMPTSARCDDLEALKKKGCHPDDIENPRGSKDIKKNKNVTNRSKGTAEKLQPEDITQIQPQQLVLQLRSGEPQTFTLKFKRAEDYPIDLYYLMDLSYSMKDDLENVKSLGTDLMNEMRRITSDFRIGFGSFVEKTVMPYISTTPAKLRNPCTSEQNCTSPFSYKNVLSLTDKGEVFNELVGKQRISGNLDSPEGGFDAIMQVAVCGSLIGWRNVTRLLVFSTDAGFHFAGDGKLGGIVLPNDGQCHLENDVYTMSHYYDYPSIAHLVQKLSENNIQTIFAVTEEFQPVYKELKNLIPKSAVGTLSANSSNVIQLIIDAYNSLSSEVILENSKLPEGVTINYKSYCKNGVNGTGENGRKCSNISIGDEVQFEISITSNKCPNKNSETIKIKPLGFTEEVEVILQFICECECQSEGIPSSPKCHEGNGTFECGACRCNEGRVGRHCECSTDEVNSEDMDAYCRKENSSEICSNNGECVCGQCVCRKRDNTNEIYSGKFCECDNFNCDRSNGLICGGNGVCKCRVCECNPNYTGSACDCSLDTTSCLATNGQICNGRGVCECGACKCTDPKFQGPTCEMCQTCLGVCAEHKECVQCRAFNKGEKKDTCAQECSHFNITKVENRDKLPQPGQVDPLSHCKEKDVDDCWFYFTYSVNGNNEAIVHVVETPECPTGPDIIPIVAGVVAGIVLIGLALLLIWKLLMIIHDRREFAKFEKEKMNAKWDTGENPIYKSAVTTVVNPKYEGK
T1 sequence (chain, as listed by the source, chain 1 of 2): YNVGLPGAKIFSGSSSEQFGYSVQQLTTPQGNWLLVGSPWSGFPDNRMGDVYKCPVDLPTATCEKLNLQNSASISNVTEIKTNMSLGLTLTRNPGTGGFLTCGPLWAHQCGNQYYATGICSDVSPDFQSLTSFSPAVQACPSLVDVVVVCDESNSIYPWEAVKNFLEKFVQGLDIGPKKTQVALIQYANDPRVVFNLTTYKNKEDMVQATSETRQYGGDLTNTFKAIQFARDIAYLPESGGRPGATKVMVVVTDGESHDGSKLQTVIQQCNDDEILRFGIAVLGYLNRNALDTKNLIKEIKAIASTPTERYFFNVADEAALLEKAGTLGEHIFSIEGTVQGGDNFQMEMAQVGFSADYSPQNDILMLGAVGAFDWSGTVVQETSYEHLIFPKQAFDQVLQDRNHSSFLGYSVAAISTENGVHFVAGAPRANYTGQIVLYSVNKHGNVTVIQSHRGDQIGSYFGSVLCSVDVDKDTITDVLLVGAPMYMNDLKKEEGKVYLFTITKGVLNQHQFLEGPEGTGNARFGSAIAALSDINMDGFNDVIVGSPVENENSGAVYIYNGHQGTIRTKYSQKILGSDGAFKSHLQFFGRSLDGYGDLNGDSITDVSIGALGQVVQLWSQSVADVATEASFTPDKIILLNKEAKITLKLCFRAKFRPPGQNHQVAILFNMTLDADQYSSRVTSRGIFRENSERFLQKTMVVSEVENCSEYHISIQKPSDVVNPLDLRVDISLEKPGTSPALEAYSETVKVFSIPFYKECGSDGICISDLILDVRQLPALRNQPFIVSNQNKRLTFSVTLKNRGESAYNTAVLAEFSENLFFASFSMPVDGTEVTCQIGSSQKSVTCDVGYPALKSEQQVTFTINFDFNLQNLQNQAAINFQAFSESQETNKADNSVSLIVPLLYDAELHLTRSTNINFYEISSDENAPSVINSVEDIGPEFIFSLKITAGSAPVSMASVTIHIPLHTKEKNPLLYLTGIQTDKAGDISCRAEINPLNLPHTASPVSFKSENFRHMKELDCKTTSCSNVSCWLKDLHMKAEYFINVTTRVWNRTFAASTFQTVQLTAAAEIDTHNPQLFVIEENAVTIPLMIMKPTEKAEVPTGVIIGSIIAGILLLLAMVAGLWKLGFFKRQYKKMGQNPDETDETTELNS
T1 sequence (P49134 21-798, chain 2 of 2): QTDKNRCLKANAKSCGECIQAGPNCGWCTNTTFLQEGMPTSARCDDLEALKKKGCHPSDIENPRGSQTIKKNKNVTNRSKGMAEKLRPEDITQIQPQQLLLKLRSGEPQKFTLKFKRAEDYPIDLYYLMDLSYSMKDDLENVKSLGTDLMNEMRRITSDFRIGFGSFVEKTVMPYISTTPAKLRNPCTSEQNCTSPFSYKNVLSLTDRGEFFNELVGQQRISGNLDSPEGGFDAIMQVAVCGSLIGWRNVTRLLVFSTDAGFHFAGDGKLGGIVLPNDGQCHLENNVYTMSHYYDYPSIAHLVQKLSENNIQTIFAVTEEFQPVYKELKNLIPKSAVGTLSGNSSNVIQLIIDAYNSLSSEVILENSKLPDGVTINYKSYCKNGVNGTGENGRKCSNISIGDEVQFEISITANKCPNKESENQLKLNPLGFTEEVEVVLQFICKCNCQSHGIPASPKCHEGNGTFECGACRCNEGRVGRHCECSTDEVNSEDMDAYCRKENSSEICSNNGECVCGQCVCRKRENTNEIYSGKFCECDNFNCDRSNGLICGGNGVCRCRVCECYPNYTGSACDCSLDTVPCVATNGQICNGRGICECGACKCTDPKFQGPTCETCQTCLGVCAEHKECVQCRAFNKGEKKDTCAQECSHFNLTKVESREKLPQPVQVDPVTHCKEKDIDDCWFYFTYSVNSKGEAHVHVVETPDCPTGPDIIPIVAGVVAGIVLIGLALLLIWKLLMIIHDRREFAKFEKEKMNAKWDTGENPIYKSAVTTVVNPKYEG

binding result [1]: no binding
binding result [2]: no binding
binding result [3]: no binding
binding result [4]: no binding
EC50 (read off the curve) [5]: ~0.2 nM
Kd [6]: 0.215 nM
B1: anti-α2 integrin mAb purified from hybridoma supernatant (murine, mCk, mIgG2a) (antibody)
heavy: QVQLHQPGAELVKPGAPVKLSCKASGYTFTSYWMNWVKQRPGRGLEWIGRIDPSDSETHYNQKFKDKATLTVDKSSSTAYIQLSSLTSEDSAVYYCAKVGRGYFDYWGQGTTLTVSSAKTTAPSVYPLAPVCGDTTGSSVTLGCLVKGYFPEPVTLTWNSGSLSSGVHTFPAVLQSDLYTLSSSVTVTSSTWPSQSITCNVAHPASSTKVDKKIEPRGPTIKPCPPCKCPAPNLLGGPSVFIFPPKIKDVLMISLSPIVTCVVVDVSEDDPDVQISWFVNNVEVHTAQTQTHREDYNSTLRVVSALPIQHQDWMSGKEFKCKVNNKDLPAPIERTISKPKGSVRAPQVYVLPPPEEEMTKKQVTLTCMVTDFMPEDIYVEWTNNGKTELNYKNTEPVLDSDGSYFMYSKLRVEKKNWVERNSYSCSVVHEGLHNHHTTKSFSRTPGK
light: NIVLTQSPASLAVSLGQRATISCRASESVESYGNSFIYWYQQKPGQAPKLLIYLASNLASGVPARFSGSGSRTDFTLTIDPVEADDAATYYCQQNNEDPYTFGGGTKLEIKRADAAPTVSIFPPSSEQLTSGGASVVCFLNNFYPKDINVKWKIDGSERQNGVLNSWTDQDSKDSTYSMSSTLTLTKDEYERHNSYTCEATHKTSTSPIVKSFNRNEC
notes: also called α2-integrin mAb from hybridoma; α2 mAb from hybridoma supernatant
